Results reported in patent US20250332297A1, “DLL3-SPECIFIC BINDING CONSTRUCTS AND THEIR USE IN RADIOTHERAPY” (MOLECULAR PARTNERS AG, priority 2024, published 2025).

Legend:
NCI-H82 tumors = test: Efficacy (tumor growth) in NCI-H82 tumor model; type: in vivo, mouse; conditions: Dunnett's multiple comparisons test, tumor volume in mm^3, NCI-H82, R2G2 mice
Protocol: To determine the efficacy of radio-labelled (Pb-212) DARPin (MAM279) conjugate in inhibiting the growth of tumors that express DLL3, different dose regimens (single or repeated dose) of the conjugate were tested in a relevant mouse tumor model (NCI-H82).
Animals were under observation daily and 3× per week tumors were measured by caliper. Animals were sacrificed when tumors reached 1500 to 2000 mm^3 or if termination criteria were met. The data were expressed as average+/−SEM of tumor volume in mm^3.
To determine the efficacy of more frequent repeat-dosing of radio-labelled (Pb-212) DARPin (MAM279) conjugate in inhibiting the growth of tumors that express DLL3, a weekly repeat-dosing regimen of the conjugate was tested in a relevant mouse tumor model (NCI-H82).
Corresponding injections of buffer only were done as control. The first weekly injection of radio-labeled molecules was done 14 days after xenografting the NCI-H82 cells. Animals were under observation daily and 3× per week tumors were measured by caliper. Animals were sacrificed when tumors reached 1500 to 2000 mm^3 or if termination criteria were met. The data were expressed as average+/−SEM of tumor volume in mm^3. Results are shown in FIGS. 20A to 20D and Table 23.

NCI-H82 tumor model = test: Biodistribution of radio-labelled DARPin conjugates in NCI-H82 tumor model; conditions: mouse, in vivo, iv, 0.01 mg/kg
Protocol: NCI-H82 tumor model. R2G2 mice were purchased from Envigo. All studies were conducted under the approval of the institutional IACUC committee. Animals were maintained under specific-pathogen-free (SPF) conditions with daily cycles of light and darkness (12 h/12 h), in line with ethical guidelines. No manipulations were performed during the first 5 days after arrival, to allow the animals to acclimatize to the new environment. All mice were monitored daily for assessment of physical condition and general well-being. NCI-H82 cells were purchased from ATCC (Catalog No. HTB-175). Solid xenografts were established by subcutaneous (SQ) injection of NCI-H82 cells in RPMI media mixed 1:1 with Corning® Matrigel® basement membrane matrix (GFR; Corning, Cat No 354230.). Cells were quantified using Countess cell counter. Each mouse was injected SQ with 5×10^6 NCI-H82 cells in 100 μL RPMI/GFR-Matrigel into the right flank of each mouse. Tumor volumes were estimated three times per week through calipering, according to the formula: volume=0.5×length×width^2 and grown until they reached 200-300 mm^3. Tumor-associated antigen level expressed in tumors, tumor vascularization profile and DLL3 soluble form in mouse serum was tested.
Biodistribution study. […] Radio-labeled (Pb-212) DARPin conjugates were then injected at 0.01 mg/kg (10 μCi DARPin conjugates) into the tail vein of R2G2 mice (females) xenografted subcutaneously (at age of about 7 weeks) with NCI-H82 cells (5 million cells, growth factor reduced Matrigel) and bearing tumors (5-10 mm in diameter). […] Biodistribution was monitored at 4 h and 24h post-injection. Mice were euthanized by CO2 inhalation and cervical dislocation. Blood, spleen, kidneys, liver and tumor were extracted, weighed and the radioactivity was determined with a γ-counter counter (such as Wizard^22470, Perkin Elmer). The data were expressed as the % injected dose/gram (% ID/g).
Radio-labeled (Pb-212) DARPin conjugates were then injected at 0.01 mg/kg (10 μCi DARPin conjugates) into the tail vein of R2G2 mice (females) xenografted subcutaneously (at age of about 7 weeks) with NCI-H82 cells (5 million cells, growth factor reduced Matrigel) and bearing tumors (5-10 mm in diameter). Biodistribution was monitored at 4 h and 24h post-injection. Mice were euthanized by CO2 inhalation and cervical dislocation. Kidneys and tumor were extracted, weighed and the radioactivity was determined with a γ-counter counter (such as Wizard^22470, Perkin Elmer). The data were expressed as the % injected dose/gram (% ID/g) and the tumor to kidney (T:K) ratio was determined.
Radio-labelled (Pb-212) DARPin conjugates were then injected at 0.01 mg/kg (10 μCi DARPin conjugates) (i) into the tail vein of R2G2 mice (females) xenografted subcutaneously (at age of about 7 weeks) with NCI-H82 cells (5 million cells, growth factor reduced Matrigel) and bearing tumors (5-10 mm in diameter), and (ii) into the tail vein of athymic nude mice (females) xenografted subcutaneously (at age of about 7 weeks) with hDLL3-MC38 cells (5 million cells, growth factor reduced Matrigel) and bearing tumors (5-10 mm in diameter). Biodistribution was monitored at 4 h and 24h post-injection. Mice were euthanized by CO2 inhalation and cervical dislocation. Blood, bladder, small intestine, colon, spleen, kidneys, liver, lung, heart, tail and tumor were extracted, weighed and the radioactivity was determined with a γ-counter (such as Wizard^22470, Perkin Elmer). The data were expressed as the % injected dose/gram (% ID/g).

B1: neg. control: negative control DARPin (SEQ ID NO: 26), DLL3-specific domain replaced with non-binding domain, DOTAM-conjugated, Pb-212 labelled (conjugate)
chain: GSDLGKKLLEAARAGQDDEVRELLKAGADVNAKDYFSHTPLHLAARNGHLKIVEVLLKAGADVNAKDFAGKTPLHLAADAGHLEIVEVLLKAGADVNAQDIFGKTPADIAADAGHEDIAEVLQKAAGSPTPTPTTPTPTPTTPTPTPTGSDLGKKLLEAARAGQDDEVRELLKAGADVNAKDKDGYTPLHLAAREGHLEIVEVLLKAGADVNAKDKDGYTPLHLAAREGHLEIVEVLLKAGADVNAQDKSGKTPADLAADAGHEDIAEVLQKAAGSGSC
modifications: DOTAM conjugate, Pb-212 label; Ankyrin repeat protein (control)
- Mean Diff. (NCI-H82 tumors; Buffer only vs. (4 × 10μCi, 1 wk)): −64.44

B2: MAM120: Ankyrin repeat domain specific for DLL3 (SEQ ID NO: 4); single domain (1D) DARPin (protein)
chain: DLGTKLLSAAADGQDDEVRELLQAGADVNAKDLFGYTPLHLAAWRGHLEIVEVLLEAGADVNAKDAAGLTPLHLAAWFGHLEIVEVLLEAGADVNAQDVQGVTPADLAAKEGHEDIAEVLQQAA
modifications: Ankyrin repeat domain specific for DLL3 (MAM120)
- Blood % ID/g (NCI-H82 tumor model; 4 h): 0.1 % ID/g
- Kidneys % ID/g (NCI-H82 tumor model; 4 h): 65.5 % ID/g
- Tumors % ID/g (NCI-H82 tumor model; 4 h): 2.6 % ID/g
- Blood % ID/g (NCI-H82 tumor model; 24 h): 0.1 % ID/g
- Kidneys % ID/g (NCI-H82 tumor model; 24 h): 47.3 % ID/g
- Tumors % ID/g (NCI-H82 tumor model; 24 h): 2.9 % ID/g

B3: Rova conjugate: Rova antibody conjugated with chelator (DOTAM) and labeled with Pb-212, used as control molecule (conjugate, chains of the INN, looked up)
VH: QVQLVQSGAEVKKPGASVKVSCKASGYTFTNYGMNWVRQAPGQGLEWMGWINTYTGEPTYADDFKGRVTMTTDTSTSTAYMELRSLRSDDTAVYYCARIGDSSPSDYWGQGTLVTVSS
VL: EIVMTQSPATLSVSPGERATLSCKASQSVSNDVVWYQQKPGQAPRLLIYYASNRYTGIPARFSGSGSGTEFTLTISSLQSEDFAVYYCQQDYTSPWTFGQGTKLEIK
modifications: DOTAM chelator, 212Pb radiolabel
notes: Rova antibody conjugated with chelator (DOTAM) and labeled with Pb-212, used as control molecule
- Mean Diff. (NCI-H82 tumors; Buffer vs. conjugate (1 × 10μCi)): 119.6
- Mean Diff. (NCI-H82 tumors; Buffer vs. conjugate (4 × 10μCi, injections 2 weeks apart)): 256.3
